Test results reported in publication PMC10030265, “The lipid linked oligosaccharide polymerase Wzy and its regulating co-polymerase, Wzz, from enterobacterial common antigen biosynthesis form a complex” (Open Biology, 2023).

Legend:
[1] = target: WzyEPA-GST-distrepII (Pectobacterium atrosepticum) (UniProt Q6CZF1); experiment: cryo-EM structure; negative stain and single-particle cryo-EM of the WzyEPA : WzzEPA complex labelled with the IgG anti-strep tag II antibody; model at approximately 20 Å, C2 symmetry, dumbbell of two WzzEPA octamers
WzyEPA-distrepII = target: T1, WzyEPA-distrepII (Pectobacterium atrosepticum, UniProt Q6CZF1 1-463); experiment: quantitative immuno-dot blot; serial dilution of the co-purified complex on nitrocellulose, standard curves of each purified protein, HRP-coupled anti-His and anti-strep tag II, chemiluminescence; corrected for untagged Wzz; conditions: both partners purified
T1 construct: WzyE, ECA polymerase, Pectobacterium atrosepticum SCRI 1043 (ATCC BAA-672); cloned into a proprietary vector constructed by Huanting Liu; Predicted 57 kDa; the distrepII tag is TEV protease-cleavable; source: DDM-solubilised membranes; not shown: distrepII, C-terminal, kept
T1 sequence (looked up): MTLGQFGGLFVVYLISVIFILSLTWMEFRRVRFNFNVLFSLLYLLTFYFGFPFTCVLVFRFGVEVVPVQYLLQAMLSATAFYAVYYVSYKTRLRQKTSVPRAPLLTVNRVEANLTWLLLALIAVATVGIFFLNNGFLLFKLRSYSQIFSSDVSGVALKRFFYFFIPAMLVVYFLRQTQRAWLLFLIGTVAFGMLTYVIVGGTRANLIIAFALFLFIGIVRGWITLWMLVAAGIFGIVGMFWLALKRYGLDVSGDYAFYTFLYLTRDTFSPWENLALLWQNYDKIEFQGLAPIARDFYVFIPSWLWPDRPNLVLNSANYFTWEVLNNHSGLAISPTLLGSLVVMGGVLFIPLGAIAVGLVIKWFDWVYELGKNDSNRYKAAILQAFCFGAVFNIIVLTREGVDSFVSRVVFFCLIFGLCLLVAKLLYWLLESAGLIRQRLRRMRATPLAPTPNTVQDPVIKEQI

[2] = target: the molecule itself; experiment: cryo-EM structure; negative stain and single-particle cryo-EM of the WzyEPA : WzzEPA complex labelled with the IgG anti-strep tag II antibody; model at approximately 20 Å, C2 symmetry, dumbbell of two WzzEPA octamers
[3] = target: the molecule itself; experiment: cryo-EM structure; TEV-cleaved, SEC-purified WzzEPA : WzyEPA sample at 5 mg/ml in DDM; Titan Krios; C4 symmetry; 3.6 Å; only WzzEPA seen in the map

Molecule: His6-WzzEPA (from UniProt Q6CZE3 1-348) (natural protein)
- stoichiometry N (WzzEPA per WzyEPA) [1]: 8

B1: His6-WzzEPA (natural protein, Pectobacterium atrosepticum, UniProt Q6CZE3 1-348, looked up)
chain: MKSENLSTGNALIDNELDIRGLFRLLWRGKVWPIAIGLLFAVVALGYSYLVKQEWGATSITDKPTVNMLGGYYSQQQFLRNLDARSFSSPQPEQPSISAGAYDEFIMQLAAYDTRRDFWLQTDYYKQRLEGDEKADAALLDELVNNIQFTARDDGKKTNDSVKLVAETSSDSNTLLRQYVVFASQRAANHLNEEIKGAWAARTIFMKSQIKRQEAVAKAIYDREVRSVELALKIAQQQGISRSQTDTPADEIPASEMFLLGRPMLQARLETLQTSGPHYELDYDQNRAMLATLNVGPTLEASFQTYRYLRTPEEPVKRDSPRRAFLMVMWGAIGVLVGAGVALARRLR
notes: WzzE, polysaccharide co-polymerase of enterobacterial common antigen biosynthesis, Pectobacterium atrosepticum SCRI 1043 (ATCC BAA-672); cloned into pEHisTEV; Predicted 42 kDa; His6 tag is TEV protease-cleavable; The methods say that Wzz ran as a double band and that the lower band was not seen by the anti-His antibody (partly untagged); Isolated Wzz may have various oligomeric states; octamer in …
- stoichiometry N (WzyEPA-distrepII): 9.6 ± 1.8 His6-WzzEPA : WzyEPA-distrepII (molar ratio)
- stoichiometry N [2]: 8 subunits in the oligomer

B2: WzzEPA (TEV protease cleaved, affinity tag removed) (natural protein, Pectobacterium atrosepticum, UniProt Q6CZE3 1-348, looked up)
chain: MKSENLSTGNALIDNELDIRGLFRLLWRGKVWPIAIGLLFAVVALGYSYLVKQEWGATSITDKPTVNMLGGYYSQQQFLRNLDARSFSSPQPEQPSISAGAYDEFIMQLAAYDTRRDFWLQTDYYKQRLEGDEKADAALLDELVNNIQFTARDDGKKTNDSVKLVAETSSDSNTLLRQYVVFASQRAANHLNEEIKGAWAARTIFMKSQIKRQEAVAKAIYDREVRSVELALKIAQQQGISRSQTDTPADEIPASEMFLLGRPMLQARLETLQTSGPHYELDYDQNRAMLATLNVGPTLEASFQTYRYLRTPEEPVKRDSPRRAFLMVMWGAIGVLVGAGVALARRLR
notes: WzzE, Pectobacterium atrosepticum SCRI 1043; residues I39-V337 modelled, residues 1-39 and 338-348 not visualized; also called full length WzzEPA; source: E. coli C43(DE3), co-expressed with WzyEPA; not shown: His6, N-terminal, cleaved
- stoichiometry N [3]: 8 subunits in the oligomer
